The supplement of paper PMC9112550, “Optimization of the antimicrobial peptide Bac7 by deep mutational scanning” (BMC Biology, 2022)

system: Escherichia coli TOP10; assay: shrunken log2 fold change of peptide-encoding DNA abundance (4.5 h post-induction vs induction); higher = less antimicrobial activity (less host growth inhibition); details: time post-induction: 4.5 h; library: site-saturation at positions 5, 18, 19, 20
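Further: peptides expressed intracellularly from a pBAD plasmid library in pooled LB shake-flask culture, induced with 0.3% L-arabinose, DNA abundance read by NGS, three biological replicates, DESeq2 with apeglm shrinkage.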

Row | Sequence | shrunken log2 fold change
1 | RRIRSRPPRLPRPRPRPMYRPRP | -0.172
2 | RRIRARPPRLPRPRPRPSIFPRP | -0.101
3 | RRIRRRPPRLPRPRPRPQNPPRP | 0.214
4 | RRIRGRPPRLPRPRPRPENMPRP | 0.325
5 | RRIRWRPPRLPRPRPRPFVWPRP | 0.128
6 | RRIRQRPPRLPRPRPRPSTDPRP | -0.468
7 | RRIRARPPRLPRPRPRPRGNPRP | 0.494
8 | RRIRLRPPRLPRPRPRPQGSPRP | -0.0921
9 | RRIRSRPPRLPRPRPRPYEQPRP | -0.0601
10 | RRIRSRPPRLPRPRPRPGENPRP | 0.894
11 | RRIRYRPPRLPRPRPRPGLQPRP | -0.0156
12 | RRIRFRPPRLPRPRPRPRRMPRP | 0.397
13 | RRIRVRPPRLPRPRPRPFDMPRP | -0.16
14 | RRIRPRPPRLPRPRPRPDSEPRP | -0.208
15 | RRIRWRPPRLPRPRPRPINVPRP | -0.0356
16 | RRIRSRPPRLPRPRPRPAMVPRP | -0.274
17 | RRIRSRPPRLPRPRPRPILFPRP | -0.445
18 | RRIRERPPRLPRPRPRPRSDPRP | -0.323
19 | RRIRQRPPRLPRPRPRPFSAPRP | -0.0161
20 | RRIRYRPPRLPRPRPRPSHDPRP | -0.916
21 | RRIRVRPPRLPRPRPRPKHFPRP | 0.0968
22 | RRIRNRPPRLPRPRPRPAQEPRP | 0.0303
23 | RRIRNRPPRLPRPRPRPYHNPRP | -0.275
24 | RRIRGRPPRLPRPRPRPMQDPRP | 0.108
25 | RRIRWRPPRLPRPRPRPCLWPRP | 0.0333

Row | Sequence | shrunken log2 fold change
26 | RRIRSRPPRLPRPRPRPHAFPRP | -1.44
27 | RRIRIRPPRLPRPRPRPYWVPRP | 0.0603
28 | RRIRVRPPRLPRPRPRPKVRPRP | 0.0291
29 | RRIRLRPPRLPRPRPRPKAEPRP | 0.375
30 | RRIRWRPPRLPRPRPRPIKTPRP | 0.00902
31 | RRIRFRPPRLPRPRPRPDGRPRP | 0.023
32 | RRIRRRPPRLPRPRPRPVKDPRP | -0.0534
33 | RRIRARPPRLPRPRPRPDCVPRP | 0.813
34 | RRIRRRPPRLPRPRPRPEDEPRP | -0.0165
35 | RRIRFRPPRLPRPRPRPTNWPRP | 0.426
36 | RRIRIRPPRLPRPRPRPKTNPRP | -0.334
37 | RRIRKRPPRLPRPRPRPEGVPRP | 1.44
38 | RRIRCRPPRLPRPRPRPEMMPRP | 0.0935
39 | RRIRYRPPRLPRPRPRPMLAPRP | -0.269
40 | RRIRCRPPRLPRPRPRPYLAPRP | -0.44
41 | RRIRSRPPRLPRPRPRPCPAPRP | -0.271
42 | RRIRCRPPRLPRPRPRPTLMPRP | -0.0222
43 | RRIRPRPPRLPRPRPRPLYSPRP | -0.194
44 | RRIRERPPRLPRPRPRPCVPPRP | 0.0169
45 | RRIRPRPPRLPRPRPRPVDAPRP | 0.173
46 | RRIRWRPPRLPRPRPRPHFEPRP | -0.165
47 | RRIRYRPPRLPRPRPRPYYNPRP | -0.231
48 | RRIRERPPRLPRPRPRPVKVPRP | -0.205
49 | RRIRFRPPRLPRPRPRPMRGPRP | 0.664
50 | RRIRHRPPRLPRPRPRPNWDPRP | -0.332

Row | Sequence | shrunken log2 fold change
51 | RRIRFRPPRLPRPRPRPWCQPRP | -0.0361
52 | RRIRPRPPRLPRPRPRPGSPPRP | 0.0761
53 | RRIRCRPPRLPRPRPRPYAHPRP | -0.189
54 | RRIRRRPPRLPRPRPRPNCWPRP | 0.228
55 | RRIRCRPPRLPRPRPRPSKQPRP | -0.209
56 | RRIRARPPRLPRPRPRPVMFPRP | 0.283
57 | RRIRDRPPRLPRPRPRPGAQPRP | 1.02
58 | RRIRMRPPRLPRPRPRPADCPRP | 0.918
59 | RRIRIRPPRLPRPRPRPASAPRP | 0.613
60 | RRIRYRPPRLPRPRPRPALDPRP | -0.132
61 | RRIRGRPPRLPRPRPRPVTEPRP | 0.706
62 | RRIRNRPPRLPRPRPRPNWFPRP | -0.145
63 | RRIRGRPPRLPRPRPRPMWYPRP | 0.293
64 | RRIRARPPRLPRPRPRPQSVPRP | -0.037
65 | RRIRDRPPRLPRPRPRPVLHPRP | 0.0367
66 | RRIRKRPPRLPRPRPRPNRMPRP | 0.00972
67 | RRIRVRPPRLPRPRPRPVRLPRP | 0.44
68 | RRIRGRPPRLPRPRPRPGKDPRP | 0.18
69 | RRIRVRPPRLPRPRPRPNWEPRP | 0.104
70 | RRIRQRPPRLPRPRPRPPINPRP | -0.00134
71 | RRIRARPPRLPRPRPRPKECPRP | 0.0495
72 | RRIRFRPPRLPRPRPRPHTWPRP | -0.415
73 | RRIRIRPPRLPRPRPRPPASPRP | 0.276
74 | RRIRVRPPRLPRPRPRPAPGPRP | 0.472
75 | RRIRLRPPRLPRPRPRPEVGPRP | -0.0231

Row | Sequence | shrunken log2 fold change
76 | RRIRDRPPRLPRPRPRPWVVPRP | 0.0765
77 | RRIRNRPPRLPRPRPRPDMVPRP | 0.00433
78 | RRIRLRPPRLPRPRPRPEFYPRP | 0.0488
79 | RRIRARPPRLPRPRPRPYIGPRP | 0.00388
80 | RRIRNRPPRLPRPRPRPKGNPRP | -0.00941
81 | RRIRCRPPRLPRPRPRPQCTPRP | -0.654
82 | RRIRLRPPRLPRPRPRPVDRPRP | 0.584
83 | RRIRNRPPRLPRPRPRPFKPPRP | -0.239
84 | RRIRRRPPRLPRPRPRPMQTPRP | -0.00191
85 | RRIRKRPPRLPRPRPRPPYIPRP | -0.69
86 | RRIRHRPPRLPRPRPRPWRRPRP | -0.0609
87 | RRIRSRPPRLPRPRPRPMSCPRP | -0.067
88 | RRIRNRPPRLPRPRPRPIQRPRP | 0.00743
89 | RRIRKRPPRLPRPRPRPTPDPRP | 0.559
90 | RRIRYRPPRLPRPRPRPYSAPRP | -1.51
91 | RRIRPRPPRLPRPRPRPTWPPRP | 0.47
92 | RRIRCRPPRLPRPRPRPVTWPRP | -0.417
93 | RRIRKRPPRLPRPRPRPGQVPRP | 0.00902
94 | RRIRCRPPRLPRPRPRPCQQPRP | -0.0438
95 | RRIRLRPPRLPRPRPRPVTWPRP | -0.0276
96 | RRIRVRPPRLPRPRPRPVMAPRP | 0.0266
97 | RRIRLRPPRLPRPRPRPHWKPRP | 0.0019
98 | RRIRNRPPRLPRPRPRPQHCPRP | -0.065
99 | RRIRTRPPRLPRPRPRPRNKPRP | -0.342
100 | RRIRKRPPRLPRPRPRPELPPRP | 0.114

Row | Sequence | shrunken log2 fold change
101 | RRIRTRPPRLPRPRPRPVNFPRP | -0.484
102 | RRIRQRPPRLPRPRPRPGQIPRP | -0.226
103 | RRIRTRPPRLPRPRPRPFGMPRP | 0.00903
104 | RRIRSRPPRLPRPRPRPEQDPRP | 0.206
105 | RRIRNRPPRLPRPRPRPIHQPRP | -0.189
106 | RRIRFRPPRLPRPRPRPDTHPRP | -0.618
107 | RRIRRRPPRLPRPRPRPRFHPRP | 0.0555
108 | RRIRARPPRLPRPRPRPRNSPRP | -0.0469
109 | RRIRSRPPRLPRPRPRPPPHPRP | 0.752
110 | RRIRERPPRLPRPRPRPYFIPRP | -1.17
111 | RRIRKRPPRLPRPRPRPINGPRP | 0.00103
112 | RRIRYRPPRLPRPRPRPEPNPRP | -0.0357
113 | RRIRQRPPRLPRPRPRPTTCPRP | 0.106
114 | RRIRWRPPRLPRPRPRPQFRPRP | -0.0234
115 | RRIRGRPPRLPRPRPRPTYDPRP | 0.361
116 | RRIRHRPPRLPRPRPRPIRYPRP | 0.0301
117 | RRIRPRPPRLPRPRPRPITWPRP | -0.0578
118 | RRIRCRPPRLPRPRPRPTCWPRP | 0.15
119 | RRIRMRPPRLPRPRPRPSAFPRP | 1.26
120 | RRIRDRPPRLPRPRPRPHMKPRP | -0.467
121 | RRIRFRPPRLPRPRPRPGELPRP | 0.245
122 | RRIRRRPPRLPRPRPRPCIMPRP | -0.191
123 | RRIRNRPPRLPRPRPRPHACPRP | 0.0169
124 | RRIRLRPPRLPRPRPRPAVSPRP | -0.0934
125 | RRIRARPPRLPRPRPRPAHGPRP | 0.694
